In the supplement of paper PMC11246515:
± gives the standard deviation of the averaged measurements.

Assay: total protein half-life in vivo (active degradation + dilution); higher = more stable protein
[1] = E. coli NCM3722 delta-clpP delta-lon delta-hslV, growth: N-lim chemostat, doubling time 6 h
[2] = E. coli NCM3722 delta-clpP, growth: N-lim chemostat, doubling time 6 h
[3] = E. coli NCM3722 delta-hslV, growth: N-lim chemostat, doubling time 6 h
[4] = E. coli NCM3722 delta-lon, growth: N-lim chemostat, doubling time 6 h
[5] = E. coli NCM3722 delta-smpB, growth: N-lim chemostat, doubling time 6 h
[6] = wild type E. coli NCM3722, growth: C-lim chemostat, doubling time 6 h
[7] = wild type E. coli NCM3722, growth: C-lim chemostat, doubling time 12 h
[8] = wild type E. coli NCM3722, growth: N-lim chemostat, doubling time 6 h
[9] = wild type E. coli NCM3722, growth: N-lim chemostat, doubling time 12 h
[10] = wild type E. coli NCM3722, growth: P-lim chemostat, doubling time 6 h
[11] = wild type E. coli NCM3722, growth: P-lim chemostat, doubling time 12 h
[12] = wild type E. coli NCM3722, growth: C-lim chemostat, doubling time 3 h

Sequence | total protein half-life in vivo [1] [h] | total protein half-life in vivo [2] [h] | total protein half-life in vivo [3] [h] | total protein half-life in vivo [4] [h] | total protein half-life in vivo [5] [h] | total protein half-life in vivo [6] [h] | total protein half-life in vivo [7] [h] | total protein half-life in vivo [8] [h] | total protein half-life in vivo [9] [h] | total protein half-life in vivo [10] [h] | total protein half-life in vivo [11] [h] | total protein half-life in vivo [12] [h]
MITRDFLMNADCKTAFGAIEESLLWSAEQRAASLAATLACRPDEGPVWIFGYGSLMWNPALEFTESCTGTLVGWHRAFCLRLTAGRGTAHQPGRMLALKEGGRTTGVAYRLPEETLEQELTLLWKREMITGCYLPTWCQLDLDDGRTVNAIVFIMDPRHPEYESDTRAQVIAPLIAAASGPLGTNAQYLFSLEQELIKLGMQDDGLNDLLVSVKKLLAENFPDGVLRPGFA | 5.67 ± 0.14 |  |  |  |  |  |  |  |  |  |  | 
MITTRTARQCGQADYGWLQARYTFSFGHYFDPKLLGYASLRVLNQEVLAPGAAFQPRTYPKVDILNVILDGEAEYRDSEGNHVQASAGEALLLSTQPGVSYSEHNLSKDKPLTRMQLWLDACPQRENPLIQKLALNMGKQQLIASPEGAMGSLQLRQQVWLHHIVLDKGESANFQLHGPRAYLQSIHGKFHALTHHEEKAALTCGDGAFIRDEANITLVADSPLRALLIDLPV | 5.48 ± 0.071 | 4.42 ± 0.18 | 5.31 ± 0.28 | 4.33 ± 0.52 | 4.37 ± 0.26 | 4.71 | 9.966 ± 0.01 | 6.13 | 8.48 ± 1.3 | 4.66 ± 0.36 | 9.05 ± 0.27 | 
MITVALIDDHLIVRSGFAQLLGLEPDLQVVAEFGSGREALAGLPGRGVQVCICDISMPDISGLELLSQLPKGMATIMLSVHDSPALVEQALNAGARGFLSKRCSPDELIAAVHTVATGGCYLTPDIAIKLASGRQDPLTKRERQVAEKLAQGMAVKEIAAELGLSPKTVHVHRANLMEKLGVSNDVELARRMFDGW [P0AGA6] | 5.29 ± 0.12 | 4.19 ± 0.075 |  | 4.25 ± 1.2 | 3.84 ± 0.34 | 4.26 ± 1.2 | 8.86 ± 0.39 | 4.01 ± 0.17 | 6.351 ± 0.022 | 4.35 ± 0.56 | 7.3 ± 0.44 | 2.7 ± 0.14
MIVISRHVAIPDGELEITAIRAQGAGGQHVNKTSTAIHLRFDIRASSLPEYYKERLLAASHHLISSDGVIVIKAQEYRSQELNREAALARLVAMIKELTTEKKARRPTRPTRASKERRLASKAQKSSVKAMRGKVRSGRE |  | 3.47 | 4.86 | 5 ± 0.37 | 4.58 | 4.63 | 6.61 | 4.19 | 8.89 | 4.91 |  | 2.4
MIVKRPVSASLARAFFYIVLLSILSTGIALLTLASSLRDAEAINIAGSLRMQSYRLGYDLQSGSPQLNAHRQLFQQALHSPVLTNLNVWYVPEAVKTRYAHLNANWLEMNNRLSKGDLPWYQANINNYVNQIDLFVLALQHYAERKMLLVVAISLAGGIGIFTLVFFTLRRIRHQVVAPLNQLVTASQRIEHGQFDSPPLDTNLPNELGLLAKTFNQMSSELHKLYRSLEASVEEKTRDLHEAKRRLEVLYQCSQALNTSQIDVHCFRHILQIVRDNEAAEYLELNVGENWRISEGQPNPELPMQILPVTMQETVYGELHWQNSHVSSSEPLLNSVSSMLGRGLYFNQAQKHFQQLLLMEERATIARELHDSLAQVLSYLRIQLTLLKRSIPEDNATAQSIMADFSQALNDAYRQLRELLTTFRLTLQQADLPSALREMLDTLQNQTSAKLTLDCRLPTLALDAQMQVHLLQIIREAVLNAMKHANASEIAVSCVTAPDGNHTVYIRDNGIGIGEPKEPEGHYGLNIMRERAERLGGTLTFSQPSGGGTLVSISFRSAEGEESQLM | 7.015 ± 0.027 | 6.09 ± 0.081 | 6.03 ± 0.085 | 6.24 ± 0.29 | 5.91 ± 0.37 | 6.73 ± 0.72 | 12.6 ± 0.26 | 6.0563 ± 0.0037 |  | 5.97 ± 0.28 | 11.7 ± 2.1 | 
MIWIMLATLAVVFVVGFRVLTSGARKAIRRLSDRLNIDVVPVESMVDQMGKSAGDEFLRYLHRPDESHLQNAAQVLLIWQIVIVDGSEQNLLQWHRILQKARLAAPITDAQVRLALGFLRETEPEMQDINAFQMRYNAFFQPAEGVHWLH [P0ADL3] | 5.96 ± 1.4 | 5.141 ± 0.016 | 4.75 |  | 4.7 ± 0.11 | 5.07 ± 0.086 | 10.9 ± 2.9 | 4.71 | 10.8 | 4.65 ± 0.24 | 9.29 ± 1.7 | 2.98 ± 0.21
MKADNPFDLLLPAAMAKVAEEAGVYKATKHPLKTFYLAITAGVFISIAFVFYITATTGTGTMPFGMAKLVGGICFSLGLILCVVCGADLFTSTVLIVVAKASGRITWGQLAKNWLNVYFGNLVGALLFVLLMWLSGEYMTANGQWGLNVLQTADHKVHHTFIEAVCLGILANLMVCLAVWMSYSGRSLMDKAFIMVLPVAMFVASGFEHSIANMFMIPMGIVIRDFASPEFWTAVGSAPENFSHLTVMNFITDNLIPVTIGNIIGGGLLVGLTYWVIYLRENDHH [P0AC23] | 6.43 ± 0.36 | 7.27 ± 0.55 |  | 5.87 ± 0.32 | 6.66 ± 1.2 |  |  | 6.07 ± 0.59 | 11.5 ± 0.42 | 6.402 ± 0.033 |  | 3.67
